From patent US20140141011A1 (SCHERING, published 2014)
Where “and” joins values, the source holds several entries; their conditions need not be identical. Equal entries are not always repeated.

B1: Rat anti-human TSLP antibody 23B12 (antibody, V domains shown)
VH: EEKLQQSGDDLVRPGAAVKMSCKASGYIFTDYAMHWVKQRPGQGLEWIGTFIPLLDTSDYNQNFKGRATLTADKSSNTAYMELSRLTSEDSAVYYCARMGVTHSYVMDAWGQGASVTVSS
VL: DIVLTQSPATLSVTPGESVSLSCRASQPISISVHWFQQKSNESPRLLIKFASQSISGIPSRFSGSGSGTDFTLNINRVESEDFSVYYCQQTFSLPYTFGTGTKLELKR
notes: Parental rat monoclonal antibody purified from hybridoma supernatant; the rat constant regions are not (a rat IgG2a isotype control is used beside it; the VL is of the kappa subclass); also called r23B12; rat 23B12
B2: Humanized anti hu TSLP mAb 23B12 (VL Y49) (antibody, human IgG1, kappa)
heavy: not shown
light: EIVLTQSPGTLSLSPGERATLSCRASQPISISVHWYQQKPGQAPRLLIYFASQSISGIPDRFSGSGSGTDFTLTISRLEPEDFAVYYCQQTFSLPYTFGQGTKVEIKRTVAAPSVFIFPPSDEQLKSGTASVVCLLNNFYPREAKVQWKVDNALQSGNSQESVTEQDSKDSTYSLSSTLTLSKADYEKHKVYACEVTHQGLSSPVTKSFNRGEC
notes: also called hu23B12(VL Y49); hu23B12
B3: Humanized anti hu TSLP mAb 23B12 (VL K49) (antibody, human IgG1, kappa, V domains shown)
VH: QVQLVQSGAEVKKPGASVKVSCKASGYIFTDYAMHWVRQAPGQGLEWMGTFIPLLDTSDYNQNFKGRVTMTTDTSTSTAYMELRSLRSDDTAVYYCARMGVTHSYVMDAWGQGTLVTVSS
VL: EIVLTQSPGTLSLSPGERATLSCRASQPISISVHWYQQKPGQAPRLLIKFASQSISGIPDRFSGSGSGTDFTLTISRLEPEDFAVYYCQQTFSLPYTFGQGTKVEIKR
notes: Light chain variant of hu23B12 with K at position 49; human IgG1 / kappa; also called hu23B12(VL K49)
B4: hu-cy: humanized 23B12 VL/VH on cynomolgus constant domains (antibody)
heavy: QVQLVQSGAEVKKPGASVKVSCKASGYIFTDYAMHWVRQAPGQGLEWMGTFIPLLDTSDYNQNFKGRVTMTTDTSTSTAYMELRSLRSDDTAVYYCARMGVTHSYVMDAWGQGTLVTVSSASTKGPSVFPLAPSSRSTSESTAALGCLVKDYFPEPVTVSWNSGSLTSGVHTFPAVLQSSGLYSLSSVVTVPSSSLGTQTYVCNVNHKPSNTKVDKRVEIKTCGGGSKPPTCPPCPAPELLGGPSVFLFPPKPKDTLMISRTPEVTCVVVDVSQEDPDVKFNWYVNGAEVHHAQTKPRETQYNSTYRVVSVLTVTHQDWLNGKEYTCKVSNKALPAPIQKTISKDKGQPREPQVYTLPPSREELTKNQVSLTCLVKGFYPSDIVVEWESSGQPENTYKTTPPVLDSDGSYFLYSKLTVDKSRWQQGNVFSCSVMHEALHNHYTQKSLSLSPGK
light: EIVLTQSPGTLSLSPGERATLSCRASQPISISVHWYQQKPGQAPRLLIYFASQSISGIPDRFSGSGSGTDFTLTISRLEPEDFAVYYCQQTFSLPYTFGQGTKVEIKRTVAAPSVFIFPPSEDQVKSGTVSVVCLLNNFYPREASVKWKVDGVLKTGNSQESVTEQDSKDNTYSLSSTLTLSSTDYQSHNVYACEVTHQGLSSPVTKSFNRGEC
notes: also called hu-cy23B12; Cynoized anti hTSLP mAb 23B12 (huV-CynoC chimera)
B5: cy-hu: cyno-ized 23B12 VL/VH on human constant domains (antibody)
heavy: not shown
light: DIQMTQSPSSLSASVGDRVTITCRASQPISISVHWYQQKPGKAPKLLIYFASQSISGVPSRFSGSGSGTDFTLTISSLQPEDFATYYCQQTFSLPYTFGQGTKVEIKRTVAAPSVFIFPPSDEQLKSGTASVVCLLNNFYPREAKVQWKVDNALQSGNSQESVTEQDSKDSTYSLSSTLTLSKADYEKHKVYACEVTHQGLSSPVTKSFNRGEC
notes: also called cy-hu23B12; Cynoized anti hTSLP mAb 23B12 (782+hIgG1/781hukappa)
B6: Cyno-ized anti-human TSLP 23B12 antibody (antibody)
heavy: SQVQLVESGGGVVQPGRSLRLSCAASGYIFTDYAMHWVRQAPGKGLEWVATFIPLLDTSDYNQNFKGRFTISRDNSKNTLYLQMNSLRAEDTAVYYCARMGVTHSYVMDAWGQGTLVTVSSASTKGPSVFPLAPSSRSTSESTAALGCLVKDYFPEPVTVSWNSGSLTSGVHTFPAVLQSSGLYSLSSVVTVPSSSLGTQTYVCNVNHKPSNTKVDKRVEIKTCGGGSKPPTCPPCPAPELLGGPSVFLFPPKPKDTLMISRTPEVTCVVVDVSQEDPDVKFNWYVNGAEVHHAQTKPRETQYNSTYRVVSVLTVTHQDWLNGKEYTCKVSNKALPAPIQKTISKDKGQPREPQVYTLPPSREELTKNQVSLTCLVKGFYPSDIVVEWESSGQPENTYKTTPPVLDSDGSYFLYSKLTVDKSRWQQGNVFSCSVMHEALHNHYTQKSLSLSPGK
light: DIQMTQSPSSLSASVGDRVTITCRASQPISISVHWYQQKPGKAPKLLIYFASQSISGVPSRFSGSGSGTDFTLTISSLQPEDFATYYCQQTFSLPYTFGQGTKVEIKRTVAAPSVFIFPPSEDQVKSGTVSVVCLLNNFYPREASVKWKVDGVLKTGNSQESVTEQDSKDNTYSLSSTLTLSSTDYQSHNVYACEVTHQGLSSPVTKSFNRGEC
notes: Rat 23B12 CDRs on human VL kappa-I / VH-III frameworks fused to cynomolgus IgG constant domains, produced in CHO cells; also called cy23B12; Cynoized anti hTSLP mAb 23B12 (782+MAFA19/781MAFA7)

Key:
[1] = molecular target: T1, Recombinant human TSLP, expressed in E. coli (human, UniProt Q969D9 29-159); assay: KinExA, solution equilibrium, beads coated with biotinylated human TSLP; antigen R&D Systems 1398-TS; KinExA, not BIAcore
T1 construct: also called human TSLP E. coli; E. coli-B (biotinylated)

[2] = molecular target: T2, Recombinant human TSLP, expressed in HEK293 (human, UniProt Q969D9 29-159); assay: cell-based or functional assay
Cynomolgus monkey TSLP [3] = molecular target: T3, Cynomolgus monkey TSLP (cynomolgus monkey, UniProt A0A7N9CAT7 29-159); assay: cell-based or functional assay
[4] = molecular target: T1, Recombinant human TSLP, expressed in E. …; assay: cell-based or functional assay
[5] = molecular target: T2, Recombinant human TSLP, expressed in …; assay: KinExA, solution equilibrium, beads coated with biotinylated human TSLP; TSLP from HEK293
Cynomolgus monkey TSLP [6] = molecular target: T3, Cynomolgus monkey TSLP; assay: SPR, BIAcore T100, TSLP amine-coupled to CM5 chip, antibody injected, bivalent analyte model
[7] = molecular target: T4, Human TSLP (expression host not stated) (human, UniProt Q969D9 29-159); assay: as above
T4 construct: also called huTSLP; hu TSLP

[8] = molecular target: T1, Recombinant human TSLP, expressed in E. …; assay: KinExA, solution equilibrium, beads coated with biotinylated human TSLP; TSLP from E. coli
[9] = molecular target: T2, Recombinant human TSLP, expressed in …; assay: ELISA, TSLP coated on plate, antibody titrated; HEK293
Cynomolgus monkey TSLP [10] = molecular target: T3, Cynomolgus monkey TSLP; assay: SPR, BIAcore T100, as in Example 5 (TSLP immobilized)
[11] = molecular target: T4, Human TSLP (expression host not stated, …); assay: as above
[12] = molecular target: T2, Recombinant human TSLP, expressed in …; assay: ELISA, mean of the 3 rows above (HEK293-B, HEK293, HEK293-F); mean of n = 3: HEK293-B, HEK293 and HEK293-F human TSLP
[13] = molecular target: T2, Recombinant human TSLP, expressed in …; assay: ELISA, TSLP coated on plate, antibody titrated; HEK293-B (biotinylated TSLP)
[14] = molecular target: T1, Recombinant human TSLP, expressed in E. …; assay: ELISA, TSLP coated on plate, antibody titrated; E. coli-B (biotinylated TSLP)
[15] = molecular target: T4, Human TSLP (expression host not stated, …); assay: ELISA, mean of all 5 rows on human TSLP (HEK293 and E. coli pooled)
[16] = molecular target: T1, Recombinant human TSLP, expressed in E. …; assay: ELISA, mean of the 7 rows above (E. coli, including E. coli-B)
[17] = molecular target: T1, Recombinant human TSLP, expressed in E. …; assay: ELISA, TSLP coated on plate, antibody titrated; E. coli
[18] = molecular target: T4, Human TSLP (expression host not stated, …); assay: cell-based or functional assay
[19] = molecular target: T2, Recombinant human TSLP, expressed in …; assay: ELISA, direct coat of 200 ng TSLP instead of 100 ng, antibody titrated; HEK293
[20] = molecular target: T1, Recombinant human TSLP, expressed in E. …; assay: ELISA, direct coat of 200 ng TSLP instead of 100 ng, antibody titrated; E. coli
[21] = molecular target: T1, Recombinant human TSLP, expressed in E. …; assay: KinExA, solution equilibrium, beads coated with biotinylated human TSLP; antigen R&D Systems 1398-TS
Cynomolgus monkey TSLP [22] = molecular target: T3, Cynomolgus monkey TSLP; assay: ELISA, mean of the 6 rows above (cyno TSLP from HEK293)
[23] = molecular target: T4, Human TSLP (expression host not stated, …); assay: ELISA, mean of all 19 rows on human TSLP (HEK293 and E. coli pooled)
[24] = molecular target: T2, Recombinant human TSLP, expressed in …; assay: ELISA, mean of the 12 rows above (HEK293, including HEK293-B and HEK293-F)
[25] = molecular target: T4, Human TSLP (expression host not stated, …); assay: ELISA, mean of the 5 rows above on human TSLP (HEK293 and E. coli pooled)
[26] = molecular target: T4, Human TSLP (expression host not stated, …); assay: summary of Tables 10 and 11 (BIAcore, KinExA, Ba/F3 assay)

Row | Binder | Kd [5] | Kd (Cynomolgus monkey TSLP [6]) | Kd [7] | Kd [8] | EC50 [9] | Kd (Cynomolgus monkey TSLP [10]) | Kd [11] | EC50 [13] | EC50 [14] | EC50, inhibition of TSLP-induced proliferation of Ba/F3 transfectants; TSLP hu, TSLPR hu [18] | Kd [21] | further results
1 | B1 | 0.00022 nM | 0.086 nM | 0.064 nM | 0.00047 nM | 0.37 nM | 0.086 nM and 0.112 nM | 0.064 nM and 0.126 nM and 0.114 nM | 0.79 nM | 0.4 nM and 0.39 nM | – | – | Kd [1]: 0.00047 nM; EC50 (mean of the 5 rows above), inhibition of TSLP-induced proliferation of Ba/F3-TSLPR-IL7Ra cells; TSLP human, HEK293 [2]: 0.11 nM; EC50 (mean of the 4 rows above), inhibition of TSLP-induced proliferation of Ba/F3-TSLPR-IL7Ra cells; TSLP cyno, HEK293 (Cynomolgus monkey TSLP [3]): 0.56 nM; EC50, inhibition of TSLP-induced proliferation of Ba/F3-TSLPR-IL7Ra cells (Alamar Blue); TSLP cyno, HEK293 (Cynomolgus monkey TSLP [3]): 0.45 nM and 0.42 nM and 0.61 nM and 0.77 nM; EC50 (mean of the 8 rows above), inhibition of TSLP-induced proliferation of Ba/F3-TSLPR-IL7Ra cells; TSLP human, E. coli [4]: 3.01 nM; EC50 [12]: 0.47 nM; EC50 [15]: 0.44 nM
2 | B2 | 0.0021 nM | 0.132 nM | 0.111 nM | 0.0017 nM | – | 0.132 nM | 0.111 nM | 0.22 nM | 0.064 nM and 0.085 nM | 7.6 nM | 0.0017 nM | EC50 [16]: 0.07 nM; EC50 [17]: 0.11 nM and 0.06 nM; EC50 [19]: 0.073 nM; EC50 [20]: 0.061 nM and 0.029 nM; EC50 (Cynomolgus monkey TSLP [22]): 0.31 nM; EC50 [23]: 0.11 nM; EC50 [24]: 0.14 nM
3 | B3 | 0.001 nM | – | – | – | 0.034 nM | – | – | 0.12 nM | 0.038 nM and 0.05 nM | – | – | EC50 [25]: 0.05 nM
4 | B4 | – | – | – | – | – | 0.114 nM | 0.106 nM | – | – | 5.3 nM | 0.0014 nM | –
5 | B5 | – | – | – | – | – | 1.2 nM | 0.556 nM | – | – | 3.9 nM | 0.063 nM | –
6 | B6 | – | – | – | – | – | 1.16 nM and 2.51 nM | – | – | – | – | 0.052 nM | EC50, inhibition of TSLP-induced proliferation of Ba/F3 transfectants; TSLP hu, TSLPR cyno [18]: 0.03 nM and 0.05 nM; fold reduction in binding against hu23B12 [26]: 5 fold; fold reduction in binding against parental rat 23B12 [26]: 10 fold
